The values below come from patent publication US20210054355A1 (NEW YORK UNIVERSITY, published 2021).

First the molecules themselves.
T1: Soluble human α-Klotho ectodomain (αKlotho^ecto) (human, UniProt Q9UEF7 34-981)
T1 construct: also called wild-type αKlotho^ecto; soluble αKlotho
T1 sequence: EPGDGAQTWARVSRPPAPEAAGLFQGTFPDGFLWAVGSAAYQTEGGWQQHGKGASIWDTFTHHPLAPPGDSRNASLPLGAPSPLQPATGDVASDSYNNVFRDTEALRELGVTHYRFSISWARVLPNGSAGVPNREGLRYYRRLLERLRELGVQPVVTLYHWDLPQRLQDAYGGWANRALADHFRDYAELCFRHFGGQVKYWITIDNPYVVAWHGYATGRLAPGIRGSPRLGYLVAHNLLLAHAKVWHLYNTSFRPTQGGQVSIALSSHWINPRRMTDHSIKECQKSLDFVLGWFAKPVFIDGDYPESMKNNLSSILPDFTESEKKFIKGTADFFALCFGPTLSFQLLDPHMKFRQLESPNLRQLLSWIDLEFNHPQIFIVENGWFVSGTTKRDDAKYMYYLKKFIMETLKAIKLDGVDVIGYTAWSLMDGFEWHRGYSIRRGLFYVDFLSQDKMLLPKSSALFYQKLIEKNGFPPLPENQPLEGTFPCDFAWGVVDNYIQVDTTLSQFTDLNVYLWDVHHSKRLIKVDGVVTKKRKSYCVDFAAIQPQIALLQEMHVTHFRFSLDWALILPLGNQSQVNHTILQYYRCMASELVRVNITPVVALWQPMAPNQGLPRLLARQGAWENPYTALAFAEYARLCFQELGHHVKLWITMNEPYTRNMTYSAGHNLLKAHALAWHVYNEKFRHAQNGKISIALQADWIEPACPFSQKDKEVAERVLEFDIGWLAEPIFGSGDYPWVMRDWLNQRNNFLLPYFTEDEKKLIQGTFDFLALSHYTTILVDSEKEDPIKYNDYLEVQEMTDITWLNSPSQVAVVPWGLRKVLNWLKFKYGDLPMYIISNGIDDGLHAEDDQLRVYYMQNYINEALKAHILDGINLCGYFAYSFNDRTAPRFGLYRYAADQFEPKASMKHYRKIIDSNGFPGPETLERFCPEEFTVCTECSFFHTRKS

T2: αKlotho^ecto/ΔRBA (soluble αKlotho ectodomain lacking L544 to T565 of the KL2 β1α1 loop) (human, UniProt Q9UEF7 34-981)
T2 construct: the mature protein is E34 to S959; Expressed and purified like the wild type (pEF1α/myc-His A); also called α-Klotho^ecto/deltaRBA; αKlotho^ecto/ΔRBA mutant
T2 sequence: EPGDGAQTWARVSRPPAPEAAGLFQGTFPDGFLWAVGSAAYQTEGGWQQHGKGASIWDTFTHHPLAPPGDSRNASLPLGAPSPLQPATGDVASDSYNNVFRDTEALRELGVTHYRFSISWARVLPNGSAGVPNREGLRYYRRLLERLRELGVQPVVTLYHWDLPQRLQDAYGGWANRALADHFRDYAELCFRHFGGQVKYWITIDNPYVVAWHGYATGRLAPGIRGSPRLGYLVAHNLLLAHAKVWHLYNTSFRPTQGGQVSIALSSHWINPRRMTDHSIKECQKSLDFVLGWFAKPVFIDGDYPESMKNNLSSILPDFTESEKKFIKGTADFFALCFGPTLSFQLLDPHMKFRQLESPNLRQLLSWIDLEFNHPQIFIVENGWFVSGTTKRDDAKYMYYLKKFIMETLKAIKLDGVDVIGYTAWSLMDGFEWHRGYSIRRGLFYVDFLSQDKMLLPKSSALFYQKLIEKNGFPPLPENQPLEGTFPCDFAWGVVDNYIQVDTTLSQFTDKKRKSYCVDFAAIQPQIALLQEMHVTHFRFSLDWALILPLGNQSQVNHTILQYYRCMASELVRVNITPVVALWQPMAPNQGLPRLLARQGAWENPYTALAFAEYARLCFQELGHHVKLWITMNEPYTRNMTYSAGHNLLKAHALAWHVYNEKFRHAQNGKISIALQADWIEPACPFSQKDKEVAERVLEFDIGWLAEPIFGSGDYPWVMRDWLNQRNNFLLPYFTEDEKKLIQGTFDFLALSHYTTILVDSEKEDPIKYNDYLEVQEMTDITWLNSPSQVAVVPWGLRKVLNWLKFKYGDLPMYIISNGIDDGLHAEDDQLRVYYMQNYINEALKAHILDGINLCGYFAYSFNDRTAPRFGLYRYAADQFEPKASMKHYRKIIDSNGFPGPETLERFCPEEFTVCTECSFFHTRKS

B1: FGFR1c^ecto (human FGFR1c ligand-binding domain, D2, D3 and D2-D3 linker) (receptor)
chain: DNTKPNRMPVAPYWTSPEKMEKKLHAVPAAKTVKFKCPSSGTPNPTLRWLKNGKEFKPDHRIGGYKVRYATWSIIMDSVVPSDKGNYTCIVENEYGSINHTYQLDVVERSPHRPILQAGLPANKTVALGSNVEFMCKVYSDPQPHIQWLKHIEVNGSKIGPDNLPYVQILKTAGVNTTDKEMEVLHLRNVSFEDAGEYTCLAGNSIGLSHHSAWLTVLEALEER
B2: FGF23^ΔSRBS (FGF23^WT carrying M149A/N150A/P151A) (ligand)
chain: YPNASPLLGSSWGGLIHLYTATARNSYHLQIHKNGHVDGAPHQTIYSALMIRSEDAGFVVITGVMSRRYLCMDFRGNIFGSHYFDPENCRFQHQTLENGYDVYHSPQYHFLVSLGRAKRAFLPGAAAPPYSQFLSRRNEIPLIHFNTPIPRQHTQSAEDDSERDPLNVLKPRARMTPAPAS

Experiment [1] deals with T1, Soluble human α-Klotho ectodomain …. Briefly: SEC-MALS of a 1:1 mixture, UV280 absorbance and molecular weight against retention time [panel A].
In experiment [2] the target is T2, αKlotho^ecto/ΔRBA (soluble αKlotho …). The experiment is described as above.
Experiment [3] deals with T1, Soluble human α-Klotho ectodomain …. Briefly: SEC-MALS, 1:1:1 mixture with FGFR1c^ecto and αKlotho^ecto. How it is done:
(§1) A Superdex 200 10/300 GL column (GE Healthcare, USA) was placed in-line between the HPLC pump (Waters 1525) and the HPLC UV (Waters 2998 Photodiode Array), laser light scattering, and refractive index detectors. Light scattering and refractive index detectors were calibrated following the manufacturer's guidelines. The refractive index increment (dn/dc) in which n is the refractive index and c is the concentration of the mixture of DDM and CHS in 20 mM Tris-HCl pH 8.0 buffer containing 300 mM NaCl, was determined offline using an Optilab T-rEX refractive index detector. Monomeric bovine serum albumin (#23210, Thermo Scientific, USA) was used as part of routine data quality control.
(§2) 60 ml or more of 25 mM HEPES pH 7.5 buffer containing 150 mM NaCl were passed through the system at a flow rate of 0.5 mL/min to equilibrate the Superdex 200 10/300 GL column and establish stable baselines for light scattering and refractive index detectors. Purified αKlotho^ecto, FGER1c^ecto (wild type or mutant), and FGF23 (wild type or mutant) proteins were mixed at a molar ratio of 1:1:1 and concentrated to 12.5 μM. 50 μl of protein samples with a molar equivalent of a heparin hexasaccharide (#H006, Iduron, Manchester, U.K.) were injected onto the gel filtration column, and the column eluent was continuously monitored for 280 nm absorbance, laser light scattering, and refractive index. […]
Background: In gel filtration, larger molecules generally elute earlier.

Experiment [4] addresses B1. Briefly: SEC-MALS, 1:1:1 ternary complex with FGFR1c^ecto and αKlotho^ecto. How it is done:
as §1, §2

Regarding B1, the binding result in experiment [1] was “binds”; in experiment [2] it was “no binding”.

With B2, the binding result in experiment [3] and in experiment [4] was “binds” throughout.
